Data from patent US9670264B2, “Water soluble G-protein coupled receptor” (The Trustees of The University of Pennsylvania, priority 2013, dated 2017).

Legend:
[1] = Secondary structure by circular dichroism (CD); type: physicochemical; conditions: CD 205-260 nm
Description: The CD spectra indicated predominantly helical structures with a helical secondary structure content of ˜48% (estimations based on the molar ellipticity over the range 205 to 260 nm). The comparison of the helical content with that of the native human MUR expressed in yeast system in the presence of high concentration of detergent (0.1% SDS) is presented in Table 1.

[2] = Thermostability monitored by CD (222 nm); type: physicochemical; conditions: 5 mM sodium phosphate, pH=7.0; for melting point: 0.01% SDS
Experimental: The secondary structure of the water-soluble variant was determined through circular dichroism (CD). Circular dichroism (CD) spectra were recorded by using CD Spectrometer (Chirascan, AppliedPhotophysics Limited, Leatherhead, United Kingdom) with a scan speed of 1 nm/s and 1 mm path length. Corresponding blanks were used for calibration for each assay and subtracted from raw data. Two data sets were recorded and averaged to increase the signal-to-noise ratio. The CDNN CD spectra deconvolution software was utilized to determine the secondary structure content of the proteins. […] Absorbance was maintained lower than 1.0 to ensure sufficient light transmission. The temperature-dependence curve was plotted using GraphPad Prism® (version 5, GraphPad Software, Inc. La Jolla).

[3] = Effects of denaturant (urea) and reducing agent (2-ME), by CD and intrinsic tryptophan fluorescence; type: physicochemical
Experimental: CD and intrinsic tryptophan fluorescence were used to probe disulfide bond formation in the water-soluble variant. […] Even in 8 M urea, the protein retains some helical structure (Table 2). Upon addition of 2-ME, both the molar ellipticity and fluorescence further decreased, becoming more pronounced at the higher concentration of the reducing agent (200 mM). Thus the presence of an intramolecular disulfide bond is corroborated in the case of wsMUR-TM.
Of particular interest are the tryptophan residues located in the partially buried transmembrane locations of the model structure (positions 194, 295, and 320). The fluorescence associated with these residues is expected to be sensitive to the local hydrophobic environment and overall folding of the protein.
The decrease of the tryptophan fluorescence under denaturing conditions and in the presence of 2-ME is consistent with the changes in CD spectra observed under similar conditions. The requirement of the reducing agent to fully denature and unfold the protein indicates the relevance of an intramolecular disulfide bond in stabilizing the receptor structure. […] However, the CD and ligand-binding studies are consistent with the adoption of the proper protein tertiary structure and by extension with the formation of the correct disulfide bond.

[4] = tested on: human μ opioid receptor expressed in HEK293 cells; assay: Binding competition assay (TR-FRET/HTRF) between native human μ opioid receptor and water-soluble variants, with a fluorescent naltrexone-derived antagonist; conditions: FIG. 10, as for FIG. 7
Description: FIG. 7. […] Data is used to calculate HTRF ratios, and represent the mean±standard error of mean of quadruplicates. ΔF is used for the comparison of different runs of the same assay which reflects the signal to background of the assay. ΔF=[(Ratiosample−Ratiobackgroud)/Ratiobackgroud] (%).
A recently developed methodology which uses a fluorescently labeled ligand and the native MUR was used to investigate the ligand-binding capabilities of the water-soluble receptors.

[5] = pH 7.0 + 0.1% SDS, expressed in yeast system
[6] = None (no denaturant or reducing agent; normalisation reference)

Molecule “Native MUR: native human μ receptor expressed in yeast system, in 0.1% SDS [reference compound]” has a Helix content [1, 5] of 40.6%, an Others content [1, 5] of 40.5% and a Turn content [1, 5] of 18.9%.

B1: wsMUR-TM: computationally designed transmembrane-only water-soluble variant of the human μ opioid receptor (protein)
chain: SMITAIKIHEEYKKVCEEGKKGNKLVMEVIVRYTKMKTATNIYIFNLAKADALAESTLPFQSVNKLMGTWPFGTILCKKVISIDYYNMFTSIFTLCTMSVDRYIAVCHPVKALDFRTPRNAKEENEKNWKLSSEIGKPVEKKATTKYRQGSIDCTLTFSHPTWYWEDKLKDEVFKKAFEEPVKKIKECYGLMILRLKSVRMLSGSKEKDRNLRRITRMVLVVVEVFIKCWTEIHKYVKEGKLVTIPETTFQTVSWHECIAKGYKNSCENPKLYEELDENFKRCFREFC
B1 showed a Helix content ([1]; pH 7.0 in NaHPO4) of 48.0%, an Others content ([1]; pH 7.0 in NaHPO4) of 37.4% and a Turn content ([1]; pH 7.0 in NaHPO4) of 14.6%. For the same molecule, the “temperature at which almost fully unfolded (almost complete loss in molar ellipticity)” value ([2]; 10 to 90° C.) was 90 °C, the “temperature at which ellipticity starts to be lost significantly” value ([2]; 10 to 90° C.) was ~62 °C and the melting point ([2]; absence of cholesterol) was 82.9 °C. For the same molecule, the melting point ([2]; presence of cholesterol) was 89.3 °C, the “Fluorescence Peak Intensity (%; 300-350 nm)” value [3, 6] was 100.0% and the “Molar Ellipticity (%; 222 nm)” value [3, 6] was 100.0%. The “Fluorescence Peak Intensity (%; 300-350 nm)” value ([3]; Urea (8M)) was 28.4%, the “Molar Ellipticity (%; 222 nm)” value ([3]; Urea (8M)) was 40.0% and the “Fluorescence Peak Intensity (%; 300-350 nm)” value ([3]; Urea (8M) 2-ME (25 mM)) was 23.9%. The “Molar Ellipticity (%; 222 nm)” value ([3]; Urea (8M) 2-ME (25 mM)) was 25.1%, the “Fluorescence Peak Intensity (%; 300-350 nm)” value ([3]; Urea (8M) 2-ME (200 mM)) was 4.5% and the “Molar Ellipticity (%; 222 nm)” value ([3]; Urea (8M) 2-ME (200 mM)) was 0.0%.

B2: wsMUR-TM+7mut: second wsMUR recombinant protein (protein)
chain: SMITAIKILEEYKKVCEEGRKGNKLVMEVIVRYTKMKTATNIYIFNLAKADALAESTLPFQSVNKLMGTWPFGTILCKKVISIDYYNMFTSIFTLCTMSVDRYIAVCHPVKALDFRTPRNAKEHNEKNWKLSSEIGKPVEKRATTKYRQGSIDCTLTFSHPTWYWEDKLKDTVFKKAFEEPVKVIKECYGLMILRLKSVRMLSGSKEKDRNLRRITRMVLVVVEVFIKCWTEIHKYVKEGKL
With B2 the “binding activity (interaction with naltrexone)” value [4] was “binding activity was also observed”.
